From publication PMC4733404 (Cell, 2016) come the findings set out here.

This assay deals with EBOV GP, soluble form of the full-length extracellular domain (Zaire ebolavirus, strain  …, UniProt Q05320). In words: ELISA. A general note: In an ELISA, binding on a coated surface is turned into a signal by an enzyme label.
EBOV GP, soluble form of the full-length extracellular domain, sequence (Q05320 33-650): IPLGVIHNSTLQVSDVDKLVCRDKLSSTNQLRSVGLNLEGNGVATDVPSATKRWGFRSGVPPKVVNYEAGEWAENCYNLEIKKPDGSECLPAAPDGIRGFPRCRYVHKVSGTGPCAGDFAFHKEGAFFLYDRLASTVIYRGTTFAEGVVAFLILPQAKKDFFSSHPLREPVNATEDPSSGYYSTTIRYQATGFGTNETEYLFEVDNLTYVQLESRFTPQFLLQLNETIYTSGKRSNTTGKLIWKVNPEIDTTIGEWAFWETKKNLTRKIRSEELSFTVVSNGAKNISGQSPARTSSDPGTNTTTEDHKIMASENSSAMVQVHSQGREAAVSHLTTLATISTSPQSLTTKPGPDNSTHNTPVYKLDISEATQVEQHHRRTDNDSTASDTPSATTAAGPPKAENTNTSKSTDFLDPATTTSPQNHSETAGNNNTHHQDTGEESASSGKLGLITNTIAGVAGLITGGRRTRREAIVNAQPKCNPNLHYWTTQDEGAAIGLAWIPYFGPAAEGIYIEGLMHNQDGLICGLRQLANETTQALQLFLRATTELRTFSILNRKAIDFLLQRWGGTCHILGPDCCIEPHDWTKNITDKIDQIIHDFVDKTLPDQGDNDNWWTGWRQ

B1: BDBV289, human mAb (antibody, V domains shown)
VH: QVQLVQSGAEVKKPGSSVKVSCKASGATFGSDTVTWVRQAPGQGLEWMGGIIPFFGEANYAQRFQGRVTITADKSTNTAYMELSSLRSEDTAVYFCARQINEMATFGEIHYYTYMDVWGQGTLVTVSS
VL: GSELTQDPAVSVALGQTVRITCQGDSLRNYYASWYQQKPRQAPVLVFYGKNNRPSGIPDRFSGSSSGNTASLTISGAQAEDEADYYCNSRDSSSNHLVFGGGTKLTVL
Regarding B1, the binding result was “binds”.
